Test results published in a protein production outcome set (Wang et al. 2014).

Test: label from the status in PepcDB records

Sequence	protein production
MSVAHENARRIISDILGKQNIERVWFVGCGGSLTGFWPGKYFLDCEASKLAVGYITSNEFVHATPKALGKNSVVILASQQGNTAETVAAARVAREKGAATIGLVYQPDTPLCEYSDYIIEYQWARYPETVDPAQQKAAYSLWLALEILAQTEGYAQYDELVSAFGRFSDVVHGAQRQVQEDAQRFAAEWKDEKVVYMMGSGPSFGAAHQESICILLEMQWINSASIHSGEYFHGPFEITEPGTPFILLQSSGRTRPLDDRAIRFIERYQGKLQLIDADKLGIQDLSTDVGEYFCGLLHNCVLDVYNLALATARNHPLTTRRYMWKVEY	not failed
MLINSEIISLSGSMYEDRSYQNEAIDFIASKLANYPGVALEAPTGSGKTMMALLGSLKYAYNGHLKILYLVRTNSQEEQVIRELRTISKNRKIRALPMQGRINLCILYKTADDLKEATAESLSKFCNSRKRQVMEGHQEACPYYTIKVRSKETKDFLFENLPTAEEFYEYAFTNNLCPYESIKASLSDADIVVAPYMYFLNKTVADRFLSHWGVSREQLIIVLDEAHNLPDIGRSLGSFRISIESLNRSEKEAQSFGDPELDRGVHVTDFIEMIRSTLERTIKERVKEDDVRIRFQEFKEYLMIMNKKSEKSIRDLNNYLYLFGEYVENEKEKAGKVPVSYCSSLAQRLEAMMDEDDAMYAAILSKSESGYIQASCLDPSSILSSLKESKTIHMSGTLEPFEFYSDVTGFDIPFRRIENVFPIENRFVSYYEGVSTKYDTLDENEIRKLASIIENIVNGVKRNTIVYFPSYAVMDKVIGSGLDFDFLQEKKNLDQTEFYDVVKKFRNGGKPLLAVSGGRLSEGMNFPGRELELILIAGIPFPRPDATNRALYDYYEMKYKKGWEYAVLAPAIIKIRQEIGRLIRGKDDHGACVILDKRAKQFRRFIPDLVKTDDPVNDINTFFSNFK	failed
MPYKTKSDLPESVKHVLPSHAQDIYKEAFNSAWDQYKDKEDRRDDASREETAHKVAWAAVKHEYAKGDDDKWHKKS	not failed
MMLLQQFKKIITVLIQVLVIMGITYLGNVIQRYMHIPIAGSIVGLLLFFLLLQFKVIPAKWVNEGSNFFLTTMVFFFVPSVVGIMDVVPMINLNFILFFSMILLGTCCVALISGFIAEKMVKNKQDGNGVN	failed
FEPRSLITSDKGFVTMTLESLEEIQDVSCAWKELNRKLSSNAVSQITRMCLLKGNMGVCFDVPTTESERLQAEWHDSDWILSVPA	not failed
MSVADSYFDELFRNNDDPWAFKQRWYERRKRALTLAALPRERYRAIFEPGCANGELSADLAERCDMLVCCDTSTQAVELARQRLADVPHARVVQARLPHQWPAGQFDLIVFSELGYYLDAADLHRLIDCALAALSPDGQLLACHWRPDIEGCPLNAQAVHAILAERLSMHRLFSHHEQDFLLDLWSRDGLEHHHHHH	failed
MKNRYIILSILLFSVACRKFEPYPVFSKLALKKAFVDLGTHKLATFSVIRNSNYLVVFESGLGDDHTIWNSSNIALKAADTIDVVTYDRANRGQSGNGPVPRDVARLQSELGSVIDSFANGRKVVLIGHSLGGFMIRAWAVNNPTKVAGMLFIDPSHEKAGLDSAQNQQAEDYMYGKWSSYGTNFGAALESREWVEDNMYMATLGNLPDVPVIVLTAMKVDPPNKVEILKPWYDAHESLGTGVTDFTHVSIPNSGHMVMIDQPQILLNYIHVLLAKLH	failed
MKKQIALVALLFLGMSCFNASAQFKKFNLGKAIQAGKDAAQAISLSDADIAAMSKEYMEWMDKHNPLTKPDSEYGKRLERLTGNIKEVDGMKVNFGVYEVVDVNAFACGDGSVRICAGLMDVMTDEEVMAVIGHEIGHVIHTDSKDAMKNAYFRSAVKNAAGAASSQVAKLTDSELGAMAEALAGAQYSQKQEYEADAYGVEFCVKNNIDPYGMYKSLNKLLELSNGAPASSYMQRMFSSHPDTAKRVARAKELADKYKQLEHHHHHH	not failed
MSKKLVLLIISILCFTALTGCWIVRSDLSGDIIIGDGHGGTSHSIIKYNPATNKFESVEPGLYYEVEYNDDKSKILCYRFLENSEVRRFEICEYDIKSKKFGEPIFIPGDSQKFKGSVKYVPNSDRISFVLDYELHIYDRSSGTLTKLFEVAFNSYSWDNTGKKLLYGDYDENIYIYDMESNEKRKILTGICPVYSNSNEYIAYIGIDQRLTVYNVNTGKKWRTVPVDDSARYIFSPDDKYILLGTEYADLMSFPHYTLYILDYKTGKKKRLFGGEGNVPSLDWK	failed
MNKFKLGSDFDHLVNSLSDVELLNLFIQSCSQTTINGVPVPRFPPEEIQKQFVGASYEHALYEAYLFYRHIKEYAQNLGVPLNKESKVLDFGCGWGRIIRFLFKDASDQNLLGIDVDPAMITLCNETLGRGIYKTASPHPPVEFISDNSLDIIFAYSVFSHLSEATAENWVKEFSRVLRPGGIFIATTQARYFLDFCQQFQEHPELIQTGWHKTLSQAFPDIHRAISDYENGKFVHSPTGAGDVRNSSFYGETVIPRTYIENHYEKYLKLQDFFDDVNRLPQALFVLQKILEHHHHHH	not failed
MSLVTYQTIKVRFQASVCYITFHRPEANNTINDTLIEECLQVLNQCETSTVTVVVLEGLPEVFCFGADFQEIYQEMKRGRKQASSQEPLYDLWMKLQTGPYVTISHVRGKVNAGGLGFVSATDIAIADQTASFSLSELLFGLYPACVLPFLIRRIGRQKAHYMTLMTKPISVQEASEWGLIDAFDAESDVLLRKHLLRLRRLNKKGIAHYKQFMSSLDHQVSRAKATALTANQDMFSDPQNQMGIIRYVETGQFPWEDQEGHHHHHH	not failed
MAKSRLLLSELLDQLSFALCIVRNDYVIVKVNEYFESRVIFDGETMQGKNILELFPESADYLKRKIDTALVIESSSFSSWEQKPHLLPFKSSRPVSGEEEQMYQNLEVIPIHSEDGTIEHVCLCVYDVTIQASQQQ	not failed
MTAEVLIGDGDVRLSPHPLRAIVLGEVHARPFTALSLPARVLHFAFDTSGQRAAADRAAMISFCESRGLQPPPPGEKHHRANFGTTTLRWEQHSEFTTYTWEIPADPAGVPFHPEASSLASPMRLLPQPGPLLVAVDLHAMPEDPPRTSPERLFDRASLAVAENSDGAALFATDFQPGPSGFVRVLVIDRGMSAERAGALVQRVLEVETYRTLALLGLPEAQRLAPSIAASERRLAEVTAEMRRAGDLANNNKLLQELTELAAEVEAGAAASLYRFGASRAYDEIMNGRLATLGERKVGGLPTWSSFLARRMKPAMRTCATTEARQSDLSLKLARAANLLRTRVDVEVEQQNQELLKSMNARTRLQLRLQTTVEGLSTAAITYYVVGLFGYMVKGAAEAGRLKIDPNLLTAGFVPIAALVIWWTIRRIRKKHIPDVD	failed
VDMDVTTAKLVVGFRGYLTLTQHSLLTYRIALKLFLSMLIGWTSKIYHTLYEDGKIDDSFDVDVEIHHNFQFVLISLDTPEPIAMSNYIRQKLATIKISKEFTNEHLNLLKKEMYGDFIQSLDSIEHLTHQFSLYLSDSDKETYFDIPKIIERLTLKDVVTIGKAFFEKADASDFTVFPK	failed
MTDPVFFAPSRRYTAAEVANLTGSVLVDSGQSDVSIEALAPASEGGANALVFVDGRRNSALMPSLRAAAVLCPAEFANKAPSSVAVLIHPRPQQAFALVGRLLFPTAATPGPMTSETGVSAHAHIDPTAHVEAGAIIEAGVVIGPGVSIGSGTVIAPNAVIGQSCQIGRDGYVGPGASIQYALIGNRVIIHGGARIGQDGFGFVGGAKGPERVPQIGRVVIQDDVEIGSNSTVDRGAMSDTIIGQGTKIDNLVQIAHNVRIGRNCIVAGLSGISGSVVVGDNVTMGGGVGLADHLTIGSGAKLAARSGFMSNVPAGEIWGGYPAQPMAEAMREIAMLRTMARARKQGKDNG	failed
MFIAIHSQSFFSPEMDMVASRDRRPPPATIRREPFQLIRIKAAGLAAEGVNAMTSVFTRSAVACAIALAAAAISQAGAQGLKKYESGTKEFWTNPPPDWFLGDETEAQKGLAPPAGPPTGSSDAELAAMIKKIKLPPGFKIEVYASGVLSARQMAWGDNGTLFVGSFGVGSVYAITDKDGKKQVKTILKGLKMPTGLAFRDGALYVVDIDKLIRYDNAEANLDNLGSGKVVYDDMPSYVAHGWKYLAADKDGWFYVPFGPPFNIGIPPTSVSQIRRVDPKTGNAEIVALGVRNSVGGDVDPRSGKYWFTENARDWISDDMPSDKLNMISKLGEHFGYPYCHQGDMPDPKFAMGHKCSEFTPPVLNLGAHVAPLGMKFYTGDQFPAEYKNNIFIAEHGSWNRHKYQGGLIKRVIADPDGKNAKQEDFATGWIEGDQGYLGRPADIVLAKDGSMLVADDWAGAIYRISYSK	failed
MAAAGAPDGMEEPSMDTEAEAVATEAPARPLNCVEAEAVVGTAAEDSCDARGNLQPAPAQPPGDPAAQASVSNGEDAGGGAGRELVDLKIIWNKTKHDVKVPLDSTGSELKQKIHSITGLPPAMQKVMYKGLVPEDKTLREIKVTSGAKIMVVGSTINDVLAVNTPKDAAQQDAKAEESKKEPLCRQKQHRKVLDKGKPEDVMPSVKGAQERLPTVPLSGMYNKSGGKVRLTFKLEQDQLWIGTKERTEKLPMGSIKNVVSEPIEGHEDYHMMAFQLGPTEASYYWVYWVPTQYVDAIKDTVLGKWQYF	failed
MVKYAKTPKSFINIKDLGFALLETDELDGTIKYSNVTQTRGLQEISVETGGEIVNAYADGSIIESGTTDGEGKISMTMHAFPQEIRELIFNEIYNEAGVYSEERGKQNNYVAVWFKRERRDGSYQQVGLTKVMFADPNLEGKTAEEDWEFSSEESEGTAMHRIADGKRKILFDSSREGANVDSFFQELLNGAYDSKTEVDTGDSTTGESAAEALEHHHHHH	failed
MGVTLEGQRKESIWVLMRRQRARRALVKKIMIRPRKSVEASRRPCRAIHRRVKTLKELVPNTKTSEGLDGLFRQTADYILALEMKVKVMQTMVQVLTETNCV	failed
MKLSNKTQALHDLIAPAVQACDVNLWGIEFIPQGKRSLLRIFIDKPVDETAEPVLNEDGETELGRGIGVQDCVRVTQQVGAILDVHDPISGEYALEVSSPGWDRPFFQLEQMSAYIGQQVALRLISAVENRRKFQAKLLLVDLENEMIQVEVDGKHVLEIDSHNIDKANLIYQD	failed
MEYDEKLARFRQAHLNPFNKQSGPRQHEQGPGEEVPDVTPEEALPELPPGEPEFRCPERVMDLGLSEDHFSRPVGLFLASDVQQLRQAIEECKQVILELPEQSEKQKDAVVRLIHLRLKLQELKDPNEDEPNIRVLLEHRFYKEKSKSVKQTCDKCNTIIWGLIQTWYTCTGGPRPRRGVRNERDQSSCLRWAHIQM	failed
MVEHATSETDLDRIVRMFDGANLIVHGFDGVIQRWTSGCEQLYGWSASEAVGNVVHDLLDTQFPAGVEELRTEVRDKGFWTGQVGHRRKDGVRLAIVTRWTVLELGDPDTLIIQSNNDVTLMQQVGDELRERQAHLQSILATVPDAMIVIDDKGCIASFSTAAEKLFGYSADEAIGQNVSMLMPSPDREAHDGYLDSYIRTGRRRIIGYGRVVVGLRKHGTTFPMELSVGEAVAGGKRTFTGFVRDLTSRHRIEAELRQSQKMEAVGQLTGGLAHDFNNLLAVIIGNLEMLEARLAEPGQLSLLREAQSAADDGARLTSQLLAFGRRQALAPTVLDVGALLGEFSDLVQRTLGDSVELRTIIPGRRLSAMADKAQLQSALLNLSINARDAMPAGGRLTIEISGVEIDADYVGMYPAIRPGRYVLISVTDTGTGMTSEVMERAFEPFFTTKPTGSGTGLGLSMVYGFAKQSAGHLQLYSEPGEGTTVRLFLPRADGGRDSHPDEQQVKDAPSPGTETILVVEDDARVRRVTISRLQTLGYSVIEATNGIDALKELEAGHDVALLFSDVAMPGMNGDELARKVRERWPRVKILLTSGFSEPHAAEKEIEAGAGWLKKPYTASEMSTRLRLLLDARHGSDSA	failed
MRLLYVIKKENPMDQMPNCPKCQSEYVYHDSINFVCPDCGNEWDNNEIQESDDDQLIVKDSNGNLLAEGDNVLLIKDLKLKGSSEVLKKGTKFKNIRLVNGDHNVDCGKIMLKSEFLKKALEHHHHHH	not failed
MTKNDNTIFKDIYQLWFTQYKQTVKESTWVTTQRLFRLHILPIFSDYRIAKISIKDCQKAINQWFNAGLAKYHTLMNYVAKVLDYAINIDLISENPAKRVIVPVNKNDRSLEHHHHHH	not failed
